According to publication PMC10272187, “PPP2R1A regulates migration persistence through the NHSL1-containing WAVE Shell Complex” (Nature Communications, 2023):

Molecular target: T1, WAVE1 (1-230) (UniProt Q92558 1-230)
T1 construct: WAVE1 residues 1-230; also called WAVE1 N-terminus; source: E.coli, purified
T1 sequence (looked up): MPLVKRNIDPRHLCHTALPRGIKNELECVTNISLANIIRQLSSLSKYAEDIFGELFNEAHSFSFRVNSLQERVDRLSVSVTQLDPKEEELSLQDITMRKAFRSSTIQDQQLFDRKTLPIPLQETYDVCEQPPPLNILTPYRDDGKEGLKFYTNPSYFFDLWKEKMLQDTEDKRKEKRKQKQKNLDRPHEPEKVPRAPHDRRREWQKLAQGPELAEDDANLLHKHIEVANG
Assay: SEC; Recombinant subunits expressed individually; CYFIP1-NCKAP1 dimer and BRK1-ABI1-NHSL1 (or WAVE1) trimer reconstituted; pentamers purified on SOURCE 15Q and Superdex 200 (24 ml column)
Conditions: both partners purified

B1: BRK1 (recombinant) (natural protein, UniProt Q8WUW1 1-75, looked up)
chain: MAGQEDPVQREIHQDWANREYIEIITSSIKKIADFLNSFDMSCRSRLATLNEKLTALERRIEYIEARVTKGETLT
notes: BRK1; source: E.coli, purified
B1: binds.
